The source of these data is the supplement of paper PMC10567573.

B1: ADAMTS4 (parent)
chain: SFRKFRYGYNNVVTIPAGATHILV
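Note: lentivirally expressed fusions sorted by FACS into six bins by GFP to DsRed ratio, PSI derived from sequencing read proportions per bin multiplied by bin number.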

The variants in the series derive from B1. Description: protein stability index of a GFP-peptide fusion (GPS, HEK-293T) (PSI 1-6); higher = more stable. To be noted: c terminus: a fixed tail appended.
Consider SYRKFRYGYNNVVTIPAGATHILV, for which the protein stability index stood at 1.8.

In the case of SKRKFRYGYNNVVTIPAGATHILV, the protein stability index is 1.9.

On to SVRKFRYGYNNVVTIPAGATHILV, for which the protein stability index amounted to 1.99.

Take SNRKFRYGYNNVVTIPAGATHILV: the protein stability index came to 1.76.

As to SDRKFRYGYNNVVTIPAGATHILV, the protein stability index is 2.13.

Regarding SGRKFRYGYNNVVTIPAGATHILV, the protein stability index is 2.97.

For SCRKFRYGYNNVVTIPAGATHILV, the protein stability index was determined as 3.07.

On to SWRKFRYGYNNVVTIPAGATHILV, for which the protein stability index turned out to be 2.38.

For the variant SERKFRYGYNNVVTIPAGATHILV, the protein stability index was 1.79.

For the variant SMRKFRYGYNNVVTIPAGATHILV, the protein stability index is 2.96.

Regarding SHRKFRYGYNNVVTIPAGATHILV, the protein stability index was determined as 1.68.

As to SRRKFRYGYNNVVTIPAGATHILV, the protein stability index was found to be 2.18.

SLRKFRYGYNNVVTIPAGATHILV: the protein stability index was 1.75.

Regarding SPRKFRYGYNNVVTIPAGATHILV, the protein stability index is 2.15.

With SIRKFRYGYNNVVTIPAGATHILV, the protein stability index was determined as 2.03.

As for SARKFRYGYNNVVTIPAGATHILV, the protein stability index amounted to 1.94.

In the case of STRKFRYGYNNVVTIPAGATHILV, the protein stability index is 1.62.

On to SSRKFRYGYNNVVTIPAGATHILV, for which the protein stability index came to 2.19.

Consider SFDKFRYGYNNVVTIPAGATHILV, for which the protein stability index worked out at 1.61.

On to SFHKFRYGYNNVVTIPAGATHILV, for which the protein stability index was 1.76.

As for SFFKFRYGYNNVVTIPAGATHILV, the protein stability index was determined as 3.06.

Turning to SFGKFRYGYNNVVTIPAGATHILV, the protein stability index was determined as 2.75.

Take SFEKFRYGYNNVVTIPAGATHILV: the protein stability index is 2.13.

SFYKFRYGYNNVVTIPAGATHILV: the protein stability index was found to be 2.37.

For the variant SFVKFRYGYNNVVTIPAGATHILV, the protein stability index was 2.99.

Regarding SFTKFRYGYNNVVTIPAGATHILV, the protein stability index came to 1.6.

For the variant SFWKFRYGYNNVVTIPAGATHILV, the protein stability index was 2.24.

SFQKFRYGYNNVVTIPAGATHILV: the protein stability index came to 2.14.

Take SFKKFRYGYNNVVTIPAGATHILV: the protein stability index amounted to 3.1.

Take SFSKFRYGYNNVVTIPAGATHILV: the protein stability index amounted to 2.58.

Take SFMKFRYGYNNVVTIPAGATHILV: the protein stability index worked out at 1.83.

Regarding SFIKFRYGYNNVVTIPAGATHILV, the protein stability index was 3.31.

Regarding SFAKFRYGYNNVVTIPAGATHILV, the protein stability index was 2.45.

Consider SFLKFRYGYNNVVTIPAGATHILV, for which the protein stability index amounted to 3.11.

With SFCKFRYGYNNVVTIPAGATHILV, the protein stability index amounted to 3.97.

In the case of SFNKFRYGYNNVVTIPAGATHILV, the protein stability index turned out to be 2.89.

As to SFRSFRYGYNNVVTIPAGATHILV, the protein stability index stood at 2.6.

As for SFRLFRYGYNNVVTIPAGATHILV, the protein stability index stood at 2.71.

Take SFRGFRYGYNNVVTIPAGATHILV: the protein stability index amounted to 2.05.

As to SFRMFRYGYNNVVTIPAGATHILV, the protein stability index amounted to 2.08.

In the case of SFRQFRYGYNNVVTIPAGATHILV, the protein stability index turned out to be 3.78.

As to SFRNFRYGYNNVVTIPAGATHILV, the protein stability index came to 3.74.

In the case of SFRFFRYGYNNVVTIPAGATHILV, the protein stability index was determined as 2.78.

As for SFRRFRYGYNNVVTIPAGATHILV, the protein stability index amounted to 2.88.

For the variant SFRVFRYGYNNVVTIPAGATHILV, the protein stability index is 1.97.

In the case of SFRTFRYGYNNVVTIPAGATHILV, the protein stability index was determined as 2.68.

SFRHFRYGYNNVVTIPAGATHILV: the protein stability index is 2.56.

For the variant SFRCFRYGYNNVVTIPAGATHILV, the protein stability index was 2.55.

For the variant SFRDFRYGYNNVVTIPAGATHILV, the protein stability index was determined as 1.76.

For SFRAFRYGYNNVVTIPAGATHILV, the protein stability index stood at 3.08.

Take SFRWFRYGYNNVVTIPAGATHILV: the protein stability index amounted to 3.02.

As for SFRPFRYGYNNVVTIPAGATHILV, the protein stability index stood at 3.29.

As for SFRYFRYGYNNVVTIPAGATHILV, the protein stability index was 3.11.

In the case of SFREFRYGYNNVVTIPAGATHILV, the protein stability index was determined as 1.51.

Consider SFRKFRQGYNNVVTIPAGATHILV, for which the protein stability index turned out to be 2.24.

For the variant SFRKFRRGYNNVVTIPAGATHILV, the protein stability index worked out at 2.8.

With SFRKFRTGYNNVVTIPAGATHILV, the protein stability index is 3.1.

With SFRKFRFGYNNVVTIPAGATHILV, the protein stability index was 3.04.

With SFRKFRDGYNNVVTIPAGATHILV, the protein stability index worked out at 2.07.

SFRKFRHGYNNVVTIPAGATHILV: the protein stability index was 1.77.

For the variant SFRKFRCGYNNVVTIPAGATHILV, the protein stability index worked out at 2.84.

With SFRKFRMGYNNVVTIPAGATHILV, the protein stability index came to 3.02.

On to SFRKFRNGYNNVVTIPAGATHILV, for which the protein stability index stood at 2.43.

For the variant SFRKFRLGYNNVVTIPAGATHILV, the protein stability index was determined as 2.46.

Regarding SFRKFRKGYNNVVTIPAGATHILV, the protein stability index is 2.92.

For SFRKFRWGYNNVVTIPAGATHILV, the protein stability index was found to be 2.

As to SFRKFRVGYNNVVTIPAGATHILV, the protein stability index stood at 2.81.

With SFRKFRIGYNNVVTIPAGATHILV, the protein stability index was determined as 2.89.

Turning to SFRKFRPGYNNVVTIPAGATHILV, the protein stability index is 2.83.

Turning to SFRKFRAGYNNVVTIPAGATHILV, the protein stability index is 3.52.

Consider SFRKFREGYNNVVTIPAGATHILV, for which the protein stability index is 2.63.

SFRKFRSGYNNVVTIPAGATHILV: the protein stability index was 2.19.

Turning to SFRKFRYGENNVVTIPAGATHILV, the protein stability index is 1.71.

In the case of SFRKFRYGCNNVVTIPAGATHILV, the protein stability index was found to be 1.55.

For the variant SFRKFRYGANNVVTIPAGATHILV, the protein stability index came to 3.15.

Regarding SFRKFRYGDNNVVTIPAGATHILV, the protein stability index was found to be 2.86.

Take SFRKFRYGFNNVVTIPAGATHILV: the protein stability index is 1.72.

On to IFRKFRYGYNNVVTIPAGATHILV, for which the protein stability index was 2.62.

Consider CFRKFRYGYNNVVTIPAGATHILV, for which the protein stability index stood at 2.8.

Consider RFRKFRYGYNNVVTIPAGATHILV, for which the protein stability index was found to be 2.79.

Regarding KFRKFRYGYNNVVTIPAGATHILV, the protein stability index worked out at 2.07.

Consider EFRKFRYGYNNVVTIPAGATHILV, for which the protein stability index was determined as 3.35.

As for LFRKFRYGYNNVVTIPAGATHILV, the protein stability index was found to be 2.08.

Consider VFRKFRYGYNNVVTIPAGATHILV, for which the protein stability index amounted to 2.17.

Turning to MFRKFRYGYNNVVTIPAGATHILV, the protein stability index is 2.99.

As to YFRKFRYGYNNVVTIPAGATHILV, the protein stability index worked out at 2.22.

Turning to DFRKFRYGYNNVVTIPAGATHILV, the protein stability index came out at 2.25.

As for HFRKFRYGYNNVVTIPAGATHILV, the protein stability index is 1.73.

For the variant NFRKFRYGYNNVVTIPAGATHILV, the protein stability index is 2.

As for FFRKFRYGYNNVVTIPAGATHILV, the protein stability index came to 2.34.

Regarding QFRKFRYGYNNVVTIPAGATHILV, the protein stability index worked out at 2.67.

Regarding AFRKFRYGYNNVVTIPAGATHILV, the protein stability index was 4.18.

Take PFRKFRYGYNNVVTIPAGATHILV: the protein stability index was 2.22.

For the variant TFRKFRYGYNNVVTIPAGATHILV, the protein stability index turned out to be 1.61.
